Experimental data: article PMC3689661, “Plant Kinesin-Like Calmodulin Binding Protein Employs Its Regulatory Domain for Dimerization” (PLoS ONE, 2013)

Legend:
[1] = target: His-tagged KIC (Arabidopsis) (UniProt Q9ZPX9); test: SEC; Superdex-200 run of the KCBP-KIC complex that had been isolated on Ni-NTA agarose; in the presence of Ca2+
[2] = target: KCBP (construct not stated, in the KCBP-KIC complex) (Arabidopsis); test: as above
[3] = target: the molecule itself; test: SEC; Superdex 200 16/60; 50 mM Tris pH 7.5, 150 mM NaCl, 2 mM MgCl2, 0.1 mM ATP, 1 mM TCEP, and either 1 mM EGTA or 2 mM CaCl2; isolated proteins

Molecule	stoichiometry N [3]	further results
His-tagged KIC (from UniProt Q9ZPX9 1-135) (natural protein)	–	stoichiometry N [1]: 2
KCBP (construct not stated, in the KCBP-KIC complex) (domain or fragment)	–	stoichiometry N [2]: 2
full length Arabidopsis KIC (1–135) (natural protein, UniProt Q9ZPX9 1-135, looked up, KIC, Ca2+ ion sensor and regulator of KCBP, Arabidopsis, residues 1-135; The tag's removal is told only in the general purification methods; source: E. coli BL21(DE3), purified (Ni-NTA, TEV-protease); not shown: His6, N-terminal, cleaved) MEPTEKSMLLETTSTTKMETKYEDMLPVMAEKMDVEEFVSELCKGFSLLADPERHLITAESLRRNSGILGIEGMSKEDAQGMVREGDLDGDGALNQTEFCVLMVRLSPEMMEDAETWLEKALTQELCNHNLSSMP	2	–
Arabidopsis KCBP (820–1225) (domain or fragment, UniProt Q9FHN8 820-1225, looked up, with the predicted N-terminal dimerization motif, without the regulatory helix; pET32 Xa/Lic; the tag's removal is told only in the general purification methods; the motility assay held motors by an anti-His antibody; also called N-terminal dimer of KCBP without the regulatory helix; source: E. coli BL21(DE3), purified (Ni-NTA, TEV-protease); not shown: His6-Trx, N-terminal, cleaved) NSDMLLLQNNLKELEELREMKEDIDRKNEQTAAILKMQGAQLAELEILYKEEQVLRKRYYNTIEDMKGKIRVYCRIRPLNEKESSEREKQMLTTVDEFTVEHPWKDDKRKQHIYDRVFDMRASQDDIFEDTKYLVQSAVDGYNVCIFAYGQTGSGKTFTIYGHESNPGLTPRATKELFNILKRDSKRFSFSLKAYMVELYQDTLVDLLLPKSARRLKLEIKKDSKGMVFVENVTTIPISTLEELRMILERGSERRHVSGTNMNEESSRSHLILSVVIESIDLQTQSAARGKLSFVDLAGSERVKKSGSAGCQLKEAQSINKSLSALGDVIGALSSGNQHIPYRNHKLTMLMSDSLGGNAKTLMFVNVSPAESNLDETYNSLLYASRVRTIVNDPSKHISSKEMVRL	2	–
Arabidopsis KCBP (884–1253) (domain or fragment, UniProt Q9FHN8 884-1253, looked up, motor domain with intact regulatory helix and negative coil; pET28b construct encoding a tag-free protein; source: E. coli BL21(DE3), purified (Calmodulin-Sepharose 4B)) DMKGKIRVYCRIRPLNEKESSEREKQMLTTVDEFTVEHPWKDDKRKQHIYDRVFDMRASQDDIFEDTKYLVQSAVDGYNVCIFAYGQTGSGKTFTIYGHESNPGLTPRATKELFNILKRDSKRFSFSLKAYMVELYQDTLVDLLLPKSARRLKLEIKKDSKGMVFVENVTTIPISTLEELRMILERGSERRHVSGTNMNEESSRSHLILSVVIESIDLQTQSAARGKLSFVDLAGSERVKKSGSAGCQLKEAQSINKSLSALGDVIGALSSGNQHIPYRNHKLTMLMSDSLGGNAKTLMFVNVSPAESNLDETYNSLLYASRVRTIVNDPSKHISSKEMVRLKKLVAYWKEQAGKKGEEEDLVDIEEDRT	2	–
Arabidopsis KIC (29–135) (domain or fragment, UniProt Q9ZPX9 29-135, looked up, KIC, Ca2+ ion sensor and regulator of KCBP, Arabidopsis, residues 29-135; The results speak of a deletion of the first 35 N-terminal residues; The tag's removal is told only in the general purification methods; source: E. coli BL21(DE3), purified (Ni-NTA, TEV-protease); not shown: His6-TRX, N-terminal, cleaved) MAEKMDVEEFVSELCKGFSLLADPERHLITAESLRRNSGILGIEGMSKEDAQGMVREGDLDGDGALNQTEFCVLMVRLSPEMMEDAETWLEKALTQELCNHNLSSMP	2	–
